Experimental data as given in PMC3783180 (Nucleic Acids Research, 2013).
One block for each binder: values may come before it.

Key:
[1] = biological target: T1, S. cerevisiae Dhh1 residues 30-425 (DEAD-box core, RecA1 and RecA2) (S. cerevisiae, UniProt P39517 30-425); assay: pull-down
T1 sequence: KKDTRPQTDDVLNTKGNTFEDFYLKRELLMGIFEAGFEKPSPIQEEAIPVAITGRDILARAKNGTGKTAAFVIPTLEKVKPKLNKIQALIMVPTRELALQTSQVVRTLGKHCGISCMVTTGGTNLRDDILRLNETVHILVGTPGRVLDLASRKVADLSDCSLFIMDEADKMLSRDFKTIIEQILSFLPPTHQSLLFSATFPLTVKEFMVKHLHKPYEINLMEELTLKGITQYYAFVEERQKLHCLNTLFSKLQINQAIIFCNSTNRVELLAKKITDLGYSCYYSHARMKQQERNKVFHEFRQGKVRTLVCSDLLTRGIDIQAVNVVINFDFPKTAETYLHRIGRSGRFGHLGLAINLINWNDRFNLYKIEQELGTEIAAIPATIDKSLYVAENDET

[2] = biological target: T1, S. cerevisiae Dhh1 residues 30-425 …; assay: SEC
[3] = biological target: T2, S. cerevisiae Dhh1 residues 46-422 K234D, V238D (S. cerevisiae, UniProt P39517 46-422, K234D | V238D); assay: crystal structure
T2 sequence: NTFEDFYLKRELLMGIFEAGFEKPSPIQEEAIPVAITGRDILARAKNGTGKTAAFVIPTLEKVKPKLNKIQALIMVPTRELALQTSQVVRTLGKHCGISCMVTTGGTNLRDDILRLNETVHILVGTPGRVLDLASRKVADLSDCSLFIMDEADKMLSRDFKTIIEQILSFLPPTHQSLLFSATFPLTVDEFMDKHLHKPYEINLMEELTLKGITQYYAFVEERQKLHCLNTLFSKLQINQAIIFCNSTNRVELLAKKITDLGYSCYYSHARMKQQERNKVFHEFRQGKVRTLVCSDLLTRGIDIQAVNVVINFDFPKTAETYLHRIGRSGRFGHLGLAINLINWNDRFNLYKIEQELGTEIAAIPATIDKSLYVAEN

[4] = biological target: T1, S. cerevisiae Dhh1 residues 30-425 …; assay: ITC
[5] = biological target: T3, S. cerevisiae Dhh1 residues 251-425 (RecA2 domain) (S. cerevisiae, UniProt P39517 251-425); assay: ITC
T3 sequence: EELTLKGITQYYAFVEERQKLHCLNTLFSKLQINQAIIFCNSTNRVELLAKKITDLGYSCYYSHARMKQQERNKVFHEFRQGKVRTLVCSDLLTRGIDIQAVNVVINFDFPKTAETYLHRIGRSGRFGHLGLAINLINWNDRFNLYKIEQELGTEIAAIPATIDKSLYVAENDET

- binding result [1]: binds
B1: GST-tagged S. cerevisiae Pat1 residues 1-56 (domain or fragment)
chain: MSFFGLENSGNARDGPLDFEESYKGYGEHELEENDYLNDETFGDNVQVGTDFDFGN

- binding result [1]: binds
B2: GST-tagged S. cerevisiae Pat1 residues 1-114 (N-terminal domain) (domain or fragment)
chain: MSFFGLENSGNARDGPLDFEESYKGYGEHELEENDYLNDETFGDNVQVGTDFDFGNPHSSGSSGNAIGGNGVGATARSYVAATAEGISGPRTDGTAAAGPLDLKPMESLWSTAP

Continued, binder first:

B3: S. cerevisiae Pat1 residues 1-114, as in the purified complex with Dhh1 30-425 used for limited proteolysis (domain or fragment)
chain: B2 chain
- binding result [2]: binds

Binder: QQNDYNQNRGEHIDWQDDDVSKIKQQEDFDFQRNLGMFNK (domain or fragment) [S. cerevisiae Edc3 residues 77-116, as crystallized]
- binding result [3]: binds

B4: S. cerevisiae Edc3 residues 77-158, as used for ITC (domain or fragment)
chain: QQNDYNQNRGEHIDWQDDDVSKIKQQEDFDFQRNLGMFNKKDVFAQLKQNDDILPENRLQGHNRKQTQLQQNNYQNDELVIP
- Kd [4]: 200 nM

B5: S. cerevisiae Pat1 residues 5-79, as crystallized (domain or fragment)
chain: GLENSGNARDGPLDFEESYKGYGEHELEENDYLNDETFGDNVQVGTDFDFGNPHSSGSSGNAIGGNGVGATARSY
- binding result [3]: binds

B6: His6-SUMO-tagged S. cerevisiae Pat1 residues 5-79 (domain or fragment)
chain: B5 chain
- Kd [5]: 32 nM
